According to patent publication US20150125463A1:

Experiments:
[1] = molecular target: human PD-L1 (antigen of the surface plasmon resonance analysis) (human) (UniProt Q9NZQ7); experiment: surface plasmon resonance; KD given for clone 28-8 alone
[2] = molecular target: human PD-L1 (on cells or in tissue) (human) (UniProt Q9NZQ7); experiment: IHC histoscore (0-300), FFPE tumor Mel sample T030668; 28-8 at 2 ug/ml
[3] = molecular target: human PD-L1 (on cells or in tissue) (human) (UniProt Q9NZQ7); experiment: IHC histoscore (0-300), FFPE tumor Mel sample T980744; 28-8 at 2 ug/ml
[4] = molecular target: human PD-L1 (on cells or in tissue) (human) (UniProt Q9NZQ7); experiment: IHC histoscore (0-300), FFPE tumor Mel sample T980747; 28-8 at 2 ug/ml
[5] = molecular target: human PD-L1 (on cells or in tissue) (human) (UniProt Q9NZQ7); experiment: IHC histoscore (0-300), FFPE tumor Mel sample 1168657B; 28-8 at 2 ug/ml
[6] = molecular target: human PD-L1 (on cells or in tissue) (human) (UniProt Q9NZQ7); experiment: IHC histoscore (0-300), FFPE tumor RCC sample 1164619B; 28-8 at 2 ug/ml
[7] = molecular target: human PD-L1 (on cells or in tissue) (human) (UniProt Q9NZQ7); experiment: IHC histoscore (0-300), FFPE tumor RCC sample 1167809B; 28-8 at 2 ug/ml
[8] = molecular target: human PD-L1 (on cells or in tissue) (human) (UniProt Q9NZQ7); experiment: IHC histoscore (0-300), FFPE tumor NSCLC sample 1080790; 28-8 at 2 ug/ml
[9] = molecular target: human PD-L1 (on cells or in tissue) (human) (UniProt Q9NZQ7); experiment: IHC histoscore (0-300), FFPE tumor NSCLC sample 1080754B; 28-8 at 2 ug/ml
[10] = molecular target: human PD-L1 (on cells or in tissue) (human) (UniProt Q9NZQ7); experiment: IHC histoscore (0-300), FFPE tumor NSCLC sample 1080766B; 28-8 at 2 ug/ml
[11] = molecular target: human PD-L1 (on cells or in tissue) (human) (UniProt Q9NZQ7); experiment: IHC histoscore (0-300), FFPE tumor NSCLC sample 1080993B; 28-8 at 2 ug/ml
[12] = molecular target: human PD-L1 (on cells or in tissue) (human) (UniProt Q9NZQ7); experiment: IHC histoscore (0-300), FFPE tumor Mel sample T030668; 5H1 at 5 ug/ml
[13] = molecular target: human PD-L1 (on cells or in tissue) (human) (UniProt Q9NZQ7); experiment: IHC histoscore (0-300), FFPE tumor Mel sample T980744; 5H1 at 5 ug/ml
[14] = molecular target: human PD-L1 (on cells or in tissue) (human) (UniProt Q9NZQ7); experiment: IHC histoscore (0-300), FFPE tumor Mel sample 1168657B; 5H1 at 5 ug/ml
[15] = molecular target: human PD-L1 (on cells or in tissue) (human) (UniProt Q9NZQ7); experiment: IHC histoscore (0-300), FFPE tumor RCC sample 1164619B; 5H1 at 5 ug/ml
[16] = molecular target: human PD-L1 (on cells or in tissue) (human) (UniProt Q9NZQ7); experiment: IHC histoscore (0-300), FFPE tumor RCC sample 1167809B; 5H1 at 5 ug/ml
[17] = molecular target: human PD-L1 (on cells or in tissue) (human) (UniProt Q9NZQ7); experiment: IHC histoscore (0-300), FFPE tumor NSCLC sample 1080790; 5H1 at 5 ug/ml
[18] = molecular target: human PD-L1 (on cells or in tissue) (human) (UniProt Q9NZQ7); experiment: IHC histoscore (0-300), FFPE tumor NSCLC sample 1080754B; 5H1 at 5 ug/ml
[19] = molecular target: human PD-L1 (on cells or in tissue) (human) (UniProt Q9NZQ7); experiment: IHC histoscore (0-300), FFPE tumor NSCLC sample 1080766B; 5H1 at 5 ug/ml
[20] = molecular target: human PD-L1 (on cells or in tissue) (human) (UniProt Q9NZQ7); experiment: IHC histoscore (0-300), FFPE tumor NSCLC sample 1080993B; 5H1 at 5 ug/ml

human PD-L1 (on cells or in tissue) (human), sequence (Q9NZQ7 19-290): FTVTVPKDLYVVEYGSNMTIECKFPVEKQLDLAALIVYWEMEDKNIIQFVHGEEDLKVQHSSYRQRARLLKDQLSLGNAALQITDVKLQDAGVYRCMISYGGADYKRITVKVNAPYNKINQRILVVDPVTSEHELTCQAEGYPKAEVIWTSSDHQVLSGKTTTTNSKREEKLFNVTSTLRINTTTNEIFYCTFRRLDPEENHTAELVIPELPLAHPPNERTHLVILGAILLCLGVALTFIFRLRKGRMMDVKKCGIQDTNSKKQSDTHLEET
human PD-L1 (antigen of the surface plasmon resonance analysis) (human), sequence (Q9NZQ7 19-238 limits assumed): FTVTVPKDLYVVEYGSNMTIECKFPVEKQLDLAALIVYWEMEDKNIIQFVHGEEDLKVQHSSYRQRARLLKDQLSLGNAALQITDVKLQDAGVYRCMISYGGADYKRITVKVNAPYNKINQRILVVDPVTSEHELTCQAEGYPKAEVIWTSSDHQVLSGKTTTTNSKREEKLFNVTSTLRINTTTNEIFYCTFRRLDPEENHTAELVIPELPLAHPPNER

Kd [1] [nM] | Histoscore Average [2] | Histoscore Average [3] | Histoscore Average [4] | Histoscore Average [5] | Histoscore Average [6] | Histoscore Average [7] | Histoscore Average [8] | Histoscore Average [9] | Histoscore Average [10] | Histoscore Average [11] | Histoscore Average [12] | Histoscore Average [13] | Histoscore Average [14] | Histoscore Average [15] | Histoscore Average [16] | Histoscore Average [17] | Histoscore Average [18] | Histoscore Average [19] | Histoscore Average [20] | Substance
0.1 | 113 | 123 | 9 | 0 | 4 | 125 | 37 | 261 | 130 | 16 | – | – | – | – | – | – | – | – | – | rabbit anti-human PD-L1 mAb 28-8 (antibody)
– | – | – | – | – | – | – | – | – | – | – | 98 | 98 | 0 | 4 | 108 | 40 | 245 | 103 | 12 | murine anti-human PD-L1 mAb 5H1 (antibody)
